Article PMC12985673

Biological target: NRXβ1 ECD (amino acids 81 to 311), His-tagged, labelled with Alexa Fluor 488, P0DI97
Experiment: fluorescence polarisation
Conditions: chain shown with the change; Hill equation fit, shared slope n = 1.05 ± 0.05; NL2 concentration 0-8 µM; parent: 6.2 ± 0.4 µM

Sequence of NRXβ1 ECD (amino acids 81 to 311), His-tagged, labelled with Alexa Fluor 488, P0DI97 (P0DI97 other isoform, or with tags, fused parts or gaps): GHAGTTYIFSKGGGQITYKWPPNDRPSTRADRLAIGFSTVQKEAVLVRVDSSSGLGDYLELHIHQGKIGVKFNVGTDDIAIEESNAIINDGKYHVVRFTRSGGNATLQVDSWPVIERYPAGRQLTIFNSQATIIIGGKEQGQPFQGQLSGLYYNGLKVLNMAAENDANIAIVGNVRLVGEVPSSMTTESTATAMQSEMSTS

Kd: 320 nM
B1: full-length neuroligin 2 (NL2), mouse, without the splice insert at site A, Q69ZK9 H279Y; G282K (protein)
chain: MWLLALCLVGLAGAQRGGGGPGGGAPGGPGLGLGSLGEERFPVVNTAYGRVRGVRRELNNEILGPVVQFLGVPYATPPLGARRFQPPEAPASWPGVRNATTLPPACPQNLHGALPAIMLPVWFTDNLEAAATYVQNQSEDCLYLNLYVPTEDGPLTKKRDEATLNPPDTDIRDSGKKPVMLFLHGGSYMEGTGNMFDGSVLAAYGNVIVVTLNYRLGVLGFLSTGDQAAKGNYGLLDQIQALRWLSENIAHFGGDPERITIFGSGAGASCVNLLILSHYSEKLFQKAIAQSGTAISSWSVNYQPLKYTRLLAAKVGCDREDSTEAVECLRRKSSRELVDQDVQPARYHIAFGPVVDGDVVPDDPEILMQQGEFLNYDMLIGVNQGEGLKFVEDSAESEDGVSASAFDFTVSNFVDNLYGYPEGKDVLRETIKFMYTDWADRDNGEMRRKTLLALFTDHQWVAPAVATAKLHADYQSPVYFYTFYHHCQAEGRPEWADAAHGDELPYVFGVPMVGATDLFPCNFSKNDVMLSAVVMTYWTNFAKTGDPNQPVPQDTKFIHTKPNRFEEVVWSKFNSKEKQYLHIGLKPRVRDNYRANKVAFWLELVPHLHNLHTELFTTTTRLPPYATRWPPRTPGPGTSGTRRPPPPATLPPESDIDLGPRAYDRFPGDSRDYSTELSVTVAVGASLLFLNILAFAALYYKRDRRQELRCRRLSPPGGSGSGVPGGGPLLPTAGRELPPEEELVSLQLKRGGGVGADPAEALRPACPPDYTLALRRAPDDVPLLAPGALTLLPSGLGPPPPPPPPSLHPFGPFPPPPPTATSHNNTLPHPHSTTRV
